B1: H2-Kb / E4 (parent)
chain 1: AQSVTQPDARVTVSEGASLQLRCKYSYSGTPYLFWYVQYPRQGLQLLLKYYSGDPVVQGVNGFEAEFIKSNSSFHLRKASVHWSDSAVYFCAVSAGQGGSAKLIFGEGTKLTVSS
chain 2: GGIITQTPKFLIGQEGQKLTLKCQQNFNHDTMYWYRQDSGKGLRLIYYSITENDLQKGDLSEGYDASREKKSSFSLTVTSAQKNEMAVFLCASSIWGDSYEQYFGPGTRLTVL
chain 3: not shown
chain 4: IQKTPQIQVYSRHPPENGKPNILNCYVTQFHPPHIEIQMLKNGKKIPKVEMSDMSFSKDWSFYILAHTEFTPTETDTYACRVKHDSMAEPKTVYWDRDM
chain 5: SIINFEKL
B2: H2-Kb / B7 (parent)
chain 1: GQQVQQSPTSLVLQEGENAELQCNFSTSLNSMQWFYQRPGGSLVSVFYNPSGTKQSGRLTSTTVIKERRSSLHISSSQITDSGTYLCAMERDMGYKLTFGTGTSLLVDP
chain 2: EAAVTQSPRNKVAVTGGKVTLSCNQTNNHNNMYWYRQDTGHGLRLIHYSYGAGSTEKGDIPDGYKASRPSQENFSLILELATPSQTSVYFCASGDPGDQDTQYFGPGTRLLVL
chain 3: not shown
chain 4: B1 chain 4
chain 5: SIINFEKL

Variants of: B1
Assay: % of reporter cells activated (NFAT-GFP), raw
Details: with E4
Note: test concentration or dose not given here.

Ratio to parent, by site and new letter:
chain 5 I3: L 1.22, R 0.603, A 0.921, E 1.37, C 0.762, K 0.937, N 0.667, Q 0.81, F 0.762, P 0.206, V 0.698
chain 5 F5: A 1.1, Q 0.778, P 0.762, L 0.698, M 0.629, K 0.825, I 0.746, D 1.32, R 0.508, W 0.54, S 0.556, C 1.63, N 0.635, Y 0.492, G 0.46, V 0.206, T 0.841, H 0.825, E 0.429

Variants of: B2
Assay: % of reporter cells activated (NFAT-GFP), raw
Details: with B7; scale: % of reporter cells activated

Ratio to parent of substitutions, site by site:
chain 5 I3: P 1.45, V 1.17, K 1.75, E 1.32, C 1.58, Q 1.65, F 1.02, T 1.48, M 1.29, L 1.4, W 1.48, S 0.646, R 0.862, N 1.62, D 1.11, G 1.86, H 1.68, A 1.68, Y 1.2
chain 5 L8: Y 0.769, R 1.69, T 0.646, I 0.831, D 0.615, C 1.4, H 1.23, M 0.892, W 0.585, S 0.6, K 0.785, Q 0.938, E 0.326, G 1.42, P 1.11, N 1, A 0.862, V 0.585, F 0.677
chain 5 I2: G 1.85, S 1.45, F 1.05, L 1.62, N 2.11, R 0.846, T 1.85, V 1.43, K 1.51, E 1.35, Q 1.25, P 1.72, M 1.65, H 1.83, Y 1.48, C 1.11, W 1.46, D 1.45, A 1.58
chain 5 S1: N 0.862, T 1.62, M 1.42, D 1.55, F 0.831, H 1.45, V 1.8, Y 1.37, C 1.8, W 1.77, Q 2.08, G 1.57, P 1.74, I 0.969, E 1.29, K 1.4, A 1.63, L 1.03, R 1
chain 5 F5: P 1.74, W 1.55, A 1.62, T 1.05, M 1.68, D 1.55, E 1.49, S 0.831, Q 1.25, R 0.923, N 1.31, Y 1.2, I 0.938, V 0.615, C 1.97, K 1.74, G 1.03, H 1.34, L 1.46
chain 5 K7: G 0.738, R 0.358, I 1.25, D 1.02, T 1.02, V 1.17, M 0.908, S 1.18, Y 1.18, A 1.17, Q 0.815, L 1.32, H 1.66, W 0.769, E 1.14, F 0.846, N 0.954, P 1.48, C 1.05
chain 5 E6: W 1.09, Y 0.969, T 1.63, V 1.02
chain 5 N4: H 1.49, M 1.38, F 1.26, C 0.908, Q 1.08, A 1.31, I 1.43, S 1.11, V 0.985, T 1.12, L 1.82, K 1.45, Y 1.03, D 1.69, W 1.28, G 1.15, P 0.877, R 1, E 1.35
